From patent US20230391854A1 (Innovent, published 2023)

B1: P5-22 (antibody, V domains shown)
VH: EVQLVESGGGLVKPGGSLRLSCAASGFTFRDYDIIWIRQAPGKGLEWVSYISRSGSTIYYSDSVRGRFTISRDNAKNSVYLQMNSLRAEDTAVYYCARDFGFEGPRMDVWGQGTTVTVSS
VL: DIQMTQSPSSLSASVGDRVTITCQASQDIKNYLNWYQQKPGKAPKLLIYDASNLETGVPSRFSGSGSGTDFTFTISSLQPEDIATYYCQQFDNLPITFGQGTRLEIK
notes: also called candidate antibody molecule P5-22
B2: P10-20 (antibody, V domains shown)
VH: QVQLVESGGGLVKPGGSLRLSCAASGFTFSDYYMSWIRQAPGKGLEWVSYISISSTYTNYADSVKGRFTISRDNAKNSLYLQMNSLRAEDTAVYYCVIAAAGKGHYYYGMDVWGQGTTVTVSS
VL: not shown
notes: also called candidate antibody molecule P10-20
B3: P23-29 (antibody, V domains shown)
VH: QVQLQESGPGLVKPSETLSLTCTVSGDSISSSTYYWGWIRQPPGKGLEWIGSMYYGRSTYYNPSLKSRVTVSVDTSKNQLSLKVSSVTAADTAVYYCARHLGGVDYWGQGTLVTVSS
VL: DIQMTQSPSSLSASVGDRVTITCRASQGISNSLAWYQQEPGKAPKLLLYAASTLESGVPSRFSGSGSGADSTLTISSLQPEDFATYYCQQYYSASALTFGGGTKVEIK
notes: also called candidate antibody molecule P23-29
B4: P15-16 (antibody, V domains shown)
VH: QVQLVESGGGLVQPGRSLTLSCAASGFTFDDYAMHWVRQAPGKGLEWVSGISWNSGTIDYADSVKGRFTISRDNAKNSLYLQMNSLRAEDTALYYCATLPRERAYSGYDRIFYTIDVWGQGTTVTVSS
VL: not shown
notes: also called candidate antibody molecule P15-16
B5: P14-37 (antibody, V domains shown)
VH: EVQLVESGGGLVKPGGSLRLSCAASGFTFSNAWMSWVRQAPGKGLEWVGRIKRNSDGGTTDHAAPVTGRFIISRDDSKNTLYLQMNSLRTEDTAVYYCTTDLDTVVRRVVITDHDAFDIWGQGTMVTVSS
VL: DIQMTQSPSSLSASVGDRVTITCRASQSISSFLNWYQQKAGKAPKLLIYAASSLQSGVPSRFSGSGSGTDFSLTISNLQPEDFATYYCQQSYSTPSITFGQGTRLEIK
notes: also called candidate antibody molecule P14-37
B6: P3-11 (antibody, V domains shown)
VH: QVQLVESGGGLVQPGGSLRLSCAASGITVSSNYMSWVRQAPGKGLEWVSVIYSGGSTFYADPVKGRLTISRDNSKNTLYLQMNSVRVEDTAVYYCARGEGWELPFDYWGQGALVTVSS
VL: QSALTQPPSASGSPGQSVTISCTGTSSDVGGNKYVSWYQQHPGKAPKLIIYEVSKRPSGVPDRFSGSKSGNTASLTVSGLQAEDEADYHCSSYAGSNNLVFGGGTKLTVL
notes: also called candidate antibody molecule P3-11
B7: P14-44 (antibody, V domains shown)
VH: QVQLVQSGAEVKKPGASVKVSCKASGYIFTSYSMHWVRQAPGQGLEWMGTIKPSDDSTNYAQKFQGRVSMTRDTSTSTVYMELSSLRYEDTAVYYCAREARGYYDRSGYYHPGYFDYWGQGTLVTVSS
VL: QSVLTQPASVSGSPGQSITISCTGTSSDVGGYNFVSWYQQHPGKAPKLMIYEVSDRPSGVSSRFSGSKSGNTASLTISGLQAEDEADYYCFSYTTSTTWVFGGGTKLTVL
notes: also called candidate antibody molecule P14-44

Target: nCoV S (ACRO, SPN-C52H4) (SARS-CoV-2, UniProt P0DTC2 16-1213)

Binder | EC50 [nM]
B1 | 0.0226
B2 | 0.0184
B3 | 0.0364
B4 | 0.0228
B5 | 0.0161
B6 | 0.0226
B7 | 0.0213
